Assay results from PMC1636413 (Nucleic Acids Research, 2006).
Residue numbers refer to the chain shown, from its start. In names and notes the source's numbering stands. Several values for one entry are separate records, joined by “and”; a condition that tells them apart may be missing. Identical values can stand only once.

B1: MutS^CF (cysteine-free full-length E.coli MutS, N-terminal His6-tagged) (natural protein, UniProt P23909 1-853, looked up)
chain: MSAIENFDAHTPMMQQYLRLKAQHPEILLFYRMGDFYELFYDDAKRASQLLDISLTKRGASAGEPIPMAGIPYHAVENYLAKLVNQGESVAIAEQIGDPATSKGPVERKVVRIVTPGTISDEALLQERQDNLLAAIWQDSKGFGYATLDISSGRFRLSEPADRETMAAELQRTNPAELLYAEDFAEMSLIEGRRGLRRRPLWEFEIDTARQQLNLQFGTRDLVGFGVENAPRGLSAAGALLQYAKDTQRTTLPHIRSITMEREQDSIIMDAATRRNLEITQNLAGGAENTLASVLDSTVTPMGSRMLKRWLHMPVRDTRVLLERQQTIGALQDFTAGLQPVLRQVGDLERILARLALRTARPRDLARMRHAFQQLPELRAQLETVDSAPVQALREKMGEFAELRDLLERAIIDTPPVLVRDGGVIASGYNEELDEWRALADGATDYLERLEVRERERTGLDTLKVGFNAVHGYYIQISRGQSHLAPINYMRRQTLKNAERYIIPELKEYEDKVLTSKGKALALEKQLYEELFDLLLPHLEALQQSASALAELDVLVNLAERAYTLNYTSPTFIDKPGIRITEGRHPVVEQVLNEPFIANPLNLSPQRRMLIITGPNMGGKSTYMRQTALIALMAYIGSYVPAQKVEIGPIDRIFTRVGAADDLASGRSTFMVEMTETANILHNATEYSLVLMDEIGRGTSTYDGLSLAWAVAENLANKIKALTLFATHYFELTQLPEKMEGVANVHLDALEHGDTIAFMHSVQDGAASKSYGLAVAALAGVPKEVIKRARQKLRELESISPNAAATQVDGTQMSLLSVPEETSPAVEALENLDPDSLTPRQALEWIYRLKSLV
B2: MutS^CF/D835R (cysteine-free full-length E.coli MutS with D835R, N-terminal His6-tagged) (natural protein, UniProt P23909 1-853, looked up)
chain: B1 chain with D835R
B3: MutS800^CF (cysteine-free truncated E.coli MutS, residues 1-800, N-terminal His6-tagged) (domain or fragment, UniProt P23909 1-800, looked up)
chain: MSAIENFDAHTPMMQQYLRLKAQHPEILLFYRMGDFYELFYDDAKRASQLLDISLTKRGASAGEPIPMAGIPYHAVENYLAKLVNQGESVAIAEQIGDPATSKGPVERKVVRIVTPGTISDEALLQERQDNLLAAIWQDSKGFGYATLDISSGRFRLSEPADRETMAAELQRTNPAELLYAEDFAEMSLIEGRRGLRRRPLWEFEIDTARQQLNLQFGTRDLVGFGVENAPRGLSAAGALLQYAKDTQRTTLPHIRSITMEREQDSIIMDAATRRNLEITQNLAGGAENTLASVLDSTVTPMGSRMLKRWLHMPVRDTRVLLERQQTIGALQDFTAGLQPVLRQVGDLERILARLALRTARPRDLARMRHAFQQLPELRAQLETVDSAPVQALREKMGEFAELRDLLERAIIDTPPVLVRDGGVIASGYNEELDEWRALADGATDYLERLEVRERERTGLDTLKVGFNAVHGYYIQISRGQSHLAPINYMRRQTLKNAERYIIPELKEYEDKVLTSKGKALALEKQLYEELFDLLLPHLEALQQSASALAELDVLVNLAERAYTLNYTSPTFIDKPGIRITEGRHPVVEQVLNEPFIANPLNLSPQRRMLIITGPNMGGKSTYMRQTALIALMAYIGSYVPAQKVEIGPIDRIFTRVGAADDLASGRSTFMVEMTETANILHNATEYSLVLMDEIGRGTSTYDGLSLAWAVAENLANKIKALTLFATHYFELTQLPEKMEGVANVHLDALEHGDTIAFMHSVQDGAASKSYGLAVAALAGVPKEVIKRARQKLRELESIS

Biological target: the molecule itself
Experiment: SEC

Protein | stoichiometry N
B1 | 4 and 2
B2 | 2
B3 | 2
